Assay [1] addresses recombinant truncated oyster tumor necrosis factor (roTNF) (Crassostrea gigas (Pacific oyster)). The assay is described as follows: ELISA. (In general: An ELISA detects its analyte on a solid surface through an enzyme-linked reagent.)
In assay [2] the target is recombinant truncated oyster intraflagellar transport protein 74-like protein (roIFT) (Crassostrea gigas (Pacific oyster)). The assay is described as follows: ELISA.

Turning to “P protein of HuNoV GII.4, recombinant, purified (domain or fragment)”, the results for the P/N (OD450 of sample over negative control) in assay [1] and in assay [2] were 5.33 and 3.95, respectively.
The matching figures for “P protein of HuNoV GI.1, recombinant, purified (domain or fragment)”: 5.88 and 6.97.

For the origin of these results see publication PMC10058639.
